In article PMC10397247:
Read-outs that look alike come from different tables or passages of the source.

Assays:
4H536-AA = target: T1, 4H536-AA; assay: two-hybrid library CCmax; conditions: mean of both orientations;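 also: natural log of median RNA to DNA barcode read ratio; higher means stronger binding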
T1 chain: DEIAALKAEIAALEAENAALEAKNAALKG

4H3753-AA = target: T2, 4H3753-AA; assay: two-hybrid library CCmax; conditions: mean of both orientations;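 also: natural log of median RNA to DNA barcode read ratio; higher means stronger binding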
T2 chain: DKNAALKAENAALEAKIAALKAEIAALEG

4H3410-AA = target: T3, 4H3410-AA; assay: two-hybrid library CCmax; conditions: mean of both orientations;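 also: natural log of median RNA to DNA barcode read ratio; higher means stronger binding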
T3 chain: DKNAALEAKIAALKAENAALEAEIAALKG

4H94-AA = target: T4, 4H94-AA; assay: two-hybrid library CCmax; conditions: mean of both orientations;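 also: natural log of median RNA to DNA barcode read ratio; higher means stronger binding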
T4 chain: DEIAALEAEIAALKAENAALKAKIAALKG

4H3165-AA = target: T5, 4H3165-AA; assay: two-hybrid library CCmax; conditions: mean of both orientations;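 also: natural log of median RNA to DNA barcode read ratio; higher means stronger binding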
T5 chain: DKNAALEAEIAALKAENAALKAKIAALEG

4H850-AA = target: T6, 4H850-AA; assay: two-hybrid library CCmax; conditions: mean of both orientations;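 also: natural log of median RNA to DNA barcode read ratio; higher means stronger binding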
T6 chain: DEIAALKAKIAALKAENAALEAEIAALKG

4H458-AA = target: T7, 4H458-AA; assay: two-hybrid library CCmax; conditions: mean of both orientations
T7 chain: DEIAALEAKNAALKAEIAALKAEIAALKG

4H629-AA = target: T8, 4H629-AA; assay: two-hybrid library CCmax; conditions: mean of both orientations
T8 chain: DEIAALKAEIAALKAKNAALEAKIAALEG

4H3590-AA = target: T9, 4H3590-AA; assay: two-hybrid library CCmax; conditions: mean of both orientations
T9 chain: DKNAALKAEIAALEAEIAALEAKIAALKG

4H710-AA = target: T10, 4H710-AA; assay: two-hybrid library CCmax; conditions: mean of both orientations
T10 chain: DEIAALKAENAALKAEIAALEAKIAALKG

4H310-AA = target: T11, 4H310-AA; assay: two-hybrid library CCmax
T11 chain: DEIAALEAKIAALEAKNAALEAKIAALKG

4H797-AA = target: T12, 4H797-AA; assay: two-hybrid library CCmax; conditions: mean of both orientations
T12 chain: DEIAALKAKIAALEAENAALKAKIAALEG

4H745-AA = target: T13, 4H745-AA; assay: two-hybrid library CCmax; conditions: mean of both orientations
T13 chain: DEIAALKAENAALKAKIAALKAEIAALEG

4H930-AA = target: T14, 4H930-AA; assay: two-hybrid library CCmax; conditions: mean of both orientations
T14 chain: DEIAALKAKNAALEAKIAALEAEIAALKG

4H3381-AA = target: T15, 4H3381-AA; assay: two-hybrid library CCmax; conditions: mean of both orientations
T15 chain: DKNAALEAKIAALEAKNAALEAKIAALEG

4H3130-AA = target: T16, 4H3130-AA; assay: two-hybrid library CCmax; conditions: mean of both orientations
T16 chain: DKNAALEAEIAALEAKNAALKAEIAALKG

4H3865-AA = target: T17, 4H3865-AA; assay: two-hybrid library CCmax; conditions: mean of both orientations
T17 chain: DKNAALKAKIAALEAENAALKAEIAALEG

4H891-AA = target: T18, 4H891-AA; assay: two-hybrid library CCmax; conditions: mean of both orientations
T18 chain: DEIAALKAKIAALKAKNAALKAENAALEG

4H570-AA = target: T19, 4H570-AA; assay: two-hybrid library CCmax; conditions: mean of both orientations
T19 chain: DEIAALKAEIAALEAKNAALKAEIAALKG

4H3395-AA = target: T20, 4H3395-AA; assay: two-hybrid library CCmax; conditions: mean of both orientations
T20 chain: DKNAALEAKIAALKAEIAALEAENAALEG

4H909-AA = target: T21, 4H909-AA; assay: two-hybrid library CCmax; conditions: mean of both orientations
T21 chain: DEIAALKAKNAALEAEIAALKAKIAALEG

4H3120-AA = target: T22, 4H3120-AA; assay: two-hybrid library CCmax
T22 chain: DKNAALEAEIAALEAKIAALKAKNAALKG

4H3697-AA = target: T23, 4H3697-AA; assay: two-hybrid library CCmax; conditions: mean of both orientations
T23 chain: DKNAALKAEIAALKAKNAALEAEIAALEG

4H485-AA = target: T24, 4H485-AA; assay: two-hybrid library CCmax; conditions: mean of both orientations
T24 chain: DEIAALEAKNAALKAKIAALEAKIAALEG

4H968-bN = target: T25, 4H968-bN; assay: two-hybrid library CCNG1
T25 chain: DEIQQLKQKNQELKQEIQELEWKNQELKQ

4H497-AA = target: T26, 4H497-AA; assay: two-hybrid library CCmax; conditions: mean of both orientations
T26 chain: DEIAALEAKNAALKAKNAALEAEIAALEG

4H3920-AA = target: T27, 4H3920-AA; assay: two-hybrid library CCmax; conditions: mean of both orientations
T27 chain: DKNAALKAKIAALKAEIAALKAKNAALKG

4H656-AA = target: T28, 4H656-AA; assay: two-hybrid library CCmax; conditions: mean of both orientations
T28 chain: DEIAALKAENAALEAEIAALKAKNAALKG

4H675-AA = target: T29, 4H675-AA; assay: two-hybrid library CCmax; conditions: mean of both orientations
T29 chain: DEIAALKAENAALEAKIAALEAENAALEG

4H971-AA = target: T30, 4H971-AA; assay: two-hybrid library CCmax; conditions: mean of both orientations
T30 chain: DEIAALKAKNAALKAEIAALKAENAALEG

4H3709-AA = target: T31, 4H3709-AA; assay: two-hybrid library CCmax
T31 chain: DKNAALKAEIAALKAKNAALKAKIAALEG

4H478-AA = target: T32, 4H478-AA; assay: two-hybrid library CCmax; conditions: mean of both orientations
T32 chain: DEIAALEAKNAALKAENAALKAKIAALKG

4H428-AA = target: T33, 4H428-AA; assay: two-hybrid library CCmax; conditions: mean of both orientations
T33 chain: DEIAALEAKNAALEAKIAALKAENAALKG

4H391-AA = target: T34, 4H391-AA; assay: two-hybrid library CCmax; conditions: mean of both orientations
T34 chain: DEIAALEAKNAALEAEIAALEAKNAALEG

4H3939-AA = target: T35, 4H3939-AA; assay: two-hybrid library CCmax; conditions: mean of both orientations
T35 chain: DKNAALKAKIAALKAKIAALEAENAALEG

4H967-bH = target: T36, 4H967-bH; assay: two-hybrid library CCNG1
T36 chain: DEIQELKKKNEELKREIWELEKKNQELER

4H918-bH = target: T37, 4H918-bH; assay: two-hybrid library CCNG1
T37 chain: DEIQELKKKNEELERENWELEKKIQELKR

4H908-bH = target: T38, 4H908-bH; assay: two-hybrid library CCNG1
T38 chain: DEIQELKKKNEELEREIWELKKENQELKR

4H953-bH = target: T39, 4H953-bH; assay: two-hybrid library CCNG1
T39 chain: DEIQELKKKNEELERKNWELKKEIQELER

O13-AA = target: T40, O13-AA; assay: two-hybrid library CCmax; conditions: mean of both orientations
T40 chain: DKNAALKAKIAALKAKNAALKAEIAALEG

4H_APH = target: T41, 4H_APH; assay: two-hybrid library CCmax
T41 chain: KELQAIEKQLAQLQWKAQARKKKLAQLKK

O14-AA = target: T42, O14-AA; assay: two-hybrid library CCmax; conditions: mean of both orientations
T42 chain: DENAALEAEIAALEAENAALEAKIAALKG

4H_BCR = target: T43, 4H_BCR; assay: two-hybrid library CCmax; conditions: mean of both orientations
T43 chain: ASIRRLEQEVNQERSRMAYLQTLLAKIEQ

4H_GCN4 = assay: two-hybrid library CCmax
O11-AA = target: T44, O11-AA; assay: two-hybrid library CCmax; conditions: mean of both orientations
T44 chain: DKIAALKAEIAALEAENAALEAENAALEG

GCN2_T = assay: two-hybrid library CCmax
4H510-AA = target: T45, 4H510-AA; assay: two-hybrid library CCmax; conditions: mean of both orientations
T45 chain: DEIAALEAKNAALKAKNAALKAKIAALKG

4H953-bA = target: T46, 4H953-bA; assay: two-hybrid library CCNG1
T46 chain: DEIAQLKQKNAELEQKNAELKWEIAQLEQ

4H967-bA = target: T47, 4H967-bA; assay: two-hybrid library CCNG1
T47 chain: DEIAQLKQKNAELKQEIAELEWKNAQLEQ

4H968-bA = target: T48, 4H968-bA; assay: two-hybrid library CCNG1
T48 chain: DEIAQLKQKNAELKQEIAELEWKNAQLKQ

4H918-bA = target: T49, 4H918-bA; assay: two-hybrid library CCNG1
T49 chain: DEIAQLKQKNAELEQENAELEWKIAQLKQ

Sequence of 4H_GCN4 (chain, as listed by the source): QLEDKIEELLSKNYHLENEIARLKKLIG

DEIAALEAKIAALEAKNAALEAKIAALKG [4H310-AA]
interaction score (4H536-AA): -0.922 | interaction score (4H3753-AA): -1.8 | interaction score (4H3410-AA): -0.251 | interaction score (4H94-AA): -0.904 | interaction score (4H3165-AA): -1.5 | interaction score (4H850-AA): 1.33 | interaction score (4H458-AA): 1.7 | interaction score (4H629-AA): -0.767 | interaction score (4H3590-AA): -0.923 | interaction score (4H710-AA): -0.577 | interaction score (4H310-AA): 1.89 | interaction score (4H797-AA): -0.563 | interaction score (4H745-AA): -0.998 | interaction score (4H930-AA): -1.11 | interaction score (4H3381-AA): 0.757 | interaction score (4H3130-AA): -0.0638 | interaction score (4H3865-AA): 1.13 | interaction score (4H891-AA): -0.168 | interaction score (4H570-AA): 1.97 | interaction score (4H3395-AA): -1.03 | interaction score (4H909-AA): -1.39 | interaction score (4H3120-AA; mean of both orientations): -1.43 | interaction score (4H3697-AA): 0.375 | interaction score (4H485-AA): -0.778

DEIQQLKQKNQELKQEIQELEWKNQELKQ [4H968-bN]
interaction score (4H968-bN): 0.264

DKNAALKAEIAALKAKNAALKAKIAALEG [4H3709-AA]
interaction score (4H497-AA): -1.73 | interaction score (4H3920-AA): -1.81 | interaction score (4H656-AA): 0.489 | interaction score (4H675-AA): 1.6 | interaction score (4H971-AA): -1.69 | interaction score (4H3709-AA): 0.066 | interaction score (4H478-AA): -0.647 | interaction score (4H428-AA): -2.58 | interaction score (4H391-AA): -1.04 | interaction score (4H3939-AA): -2.03

DKNAALEAEIAALEAKIAALKAKNAALKG [4H3120-AA]
interaction score (4H536-AA): 1.51 | interaction score (4H3753-AA): 0.619 | interaction score (4H3410-AA): -1.25 | interaction score (4H94-AA): -1.07 | interaction score (4H3165-AA): -1.33 | interaction score (4H850-AA): -0.918 | interaction score (4H458-AA): -1.3 | interaction score (4H629-AA): -1.66 | interaction score (4H3590-AA): 1.08 | interaction score (4H710-AA): -1.56 | interaction score (4H797-AA): -1.9 | interaction score (4H745-AA): -1.09 | interaction score (4H930-AA): -1.5 | interaction score (4H3381-AA): -1.79 | interaction score (4H3130-AA): -0.632 | interaction score (4H3865-AA): -1.52 | interaction score (4H891-AA): -0.991 | interaction score (4H570-AA): -0.988 | interaction score (4H3395-AA): 2.17 | interaction score (4H909-AA): -1.58 | interaction score (4H3120-AA): 1.15 | interaction score (4H3697-AA): -1.39 | interaction score (4H485-AA): -0.737

DEIQELKKKNEELEREIWELKKENQELKR [4H908-bH]
interaction score (4H967-bH): -0.426 | interaction score (4H918-bH): -2.03 | interaction score (4H908-bH): 0.057 | interaction score (4H953-bH): -0.842

DEIAALEAKNAALKAEIAALEAENAALEG [4H451-AA]
interaction score (O13-AA): -1.74 | interaction score (4H_APH): -1.88 | interaction score (O14-AA): 0.209 | interaction score (4H_BCR): -1.98 | interaction score (4H_GCN4): -1.53 | interaction score (O11-AA): -1.9 | interaction score (GCN2_T): -0.954 | interaction score (4H510-AA): -1.68

DEIAQLKQKNAELEQENAELEWKIAQLKQ [4H918-bA]
interaction score (4H953-bA): 1.53 | interaction score (4H967-bA): -0.684 | interaction score (4H968-bA): -0.293 | interaction score (4H918-bA): 0.453
